For the assay, the target named is UBE2A (UniProt P49459 1-152). Briefly: ITC. On the technique in general: ITC needs no label: the signal is the heat of the interaction.

Experimental findings from publication PMC10873205 (2024) are described below.

By Kd is commonly meant the free concentration of one partner at which half of the binding sites on the other are occupied at equilibrium, for simple one-to-one binding. Low readings indicate tighter binding, high ones weaker binding.

B1: UBR4_(xtal) Ser4930Arg (domain or fragment)
chain: AIQHPGTQVLIGTDSIPNLHKLEQVSSDEGIGTLAENLLEALREHPDVNKKIDAARRETRAEKKRMAMAMRQKALGTLGMTTNEKGQVVTKTALLKQMEELIEEPGLTCCICREGYKFQPTKVLGIYTFTKRVALEEMENKPRKQQGYSTVSHFNIVHYDCHLAAVRLARGREEWESAALQNANTKCNGLLPVWGPHVPERAFATCLARHNTYLQECTGQREPTYQLNIHDIKLLFLRFAMEQSFSADTGGGGRESNIHLIPYIIHTVLYVLNTTRATSREEKNLQGFLEQPKEKWVESAFEVDGPYYFTVLALHILPPEQWRATRVEILRRLLVTSQARAVAPGGATRLTDKAVKDYSAYRSSLLFWALVDLIYNMFKKVPTSNTEGGWSCSLAEYIRHNDMPIYEAADKALKTFQEEFMPVETFSEFLDVAGLLSEITDPESFLKDLLNSVP
Molecule B1 had a dissociation constant (Kd) of 1470 nM.
